In the series the target is Hfq (Escherichia coli, UniProt P0A6X3 1-102). Description: EMSA; 25 uM Hfq with 0.5-4 uM FAM-rA30, no polyP; Condensates: 20 mM HEPES pH 7.0, 50 mM NaCl, no crowder; EMSA buffer and temperature not given in the material. Particulars: protein: recombinant; chain copies: 6; label: FAM (5' as printed FAM-(rA)30); single strand. Background: Mobility shift assays separate free from complexed probe on a gel.
Chain of Hfq (P0A6X3 whole entry): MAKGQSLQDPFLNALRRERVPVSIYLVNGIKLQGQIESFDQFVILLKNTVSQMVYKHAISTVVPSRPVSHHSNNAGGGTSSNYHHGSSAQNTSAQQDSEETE

As for AAAAAAAAAAAAAAAAAAAAAAAAAAAAAA (ssRNA) [FAM-rA30], the binding result is “binds”.

The record behind these values is paper PMC13193609, “Polyphosphate modulates the stress-responsive formation of functional RNA-protein condensates in bacteria and mammalian cells”.
